In patent publication US20040081651A1 (Biogen, published 2004):

B1: chAQC2 (murine-human chimeric AQC2, blocked light chain; pAND099 + pAND102) (antibody, V domains shown)
VH: DVKVVESGGGLVKPGGSLKLACAASGFSFSRYTMSWVRQIPEKRLEWVATISGGGHTYYLDSVKGRFTISRDNAKNTLYLQMSSLRSEDTAMYYCTRGFGDGGYFDVWGQGTTVTVSS
VL: QIVLTQFPALMSASPGEKVTMTCSASSSVNHMFWYQQKPKSSPKPWIYLTSNLASGVPARFSGSGSGTSYSLTISSMEAEDAATYYCQQWSGNPWTFGGGTKLEIK
notes: also called Chimera
B2: monoclonal antibody AQC2 (mAQC2) (antibody, mouse IgG1, V domains shown)
VH: B1 VH
VL: B1 VL
notes: Hybridoma ATCC PTA3273; also called murine AQC2

Tests used:
[1] = biological target: T1, human VLA-1 (α1β1 integrin) on K562 cells transfected with the α1 integrin subunit (human, UniProt P56199 29-1179; P05556 21-798); test: FACS on human α1-transfected K562 cells
T1 construct: whole, on cells; also called huVLA-1; K562-α1

[2] = biological target: T2, human α1-I domain-GST fusion protein (human, UniProt P56199 151-364); test: ELISA on immobilized α1 I domain-GST (±0.058 in r14)
T2 construct: Expressed in E. coli; not shown: glutathione S-transferase of vector pGEX4t-i (Pharmacia), with a thrombin cleavage site at the junction

[3] = biological target: T2, human α1-I domain-GST fusion protein; test: ELISA; competition with biotinylated mAQC2 (competitor) for immobilized α1 I domain-GST
[4] = biological target: T2, human α1-I domain-GST fusion protein; test: electrochemiluminescence; inhibition of α1 I domain-GST binding to type IV collagen beads (±0.007 in r14)
[5] = biological target: T3, α1β1 integrin (VLA-1) in lysate of α1-transfected K562 cells (human, UniProt P56199 29-1179; P05556 21-798); test: electrochemiluminescence; inhibition of α1β1 (K562-α1 lysate) binding to type IV collagen beads (±0.002 in r14)
[6] = biological target: T1, human VLA-1 (α1β1 integrin) on K562 …; test: FACS of VLA-1-expressing K562α1 cells stained with conditioned medium of transfected 293-EBNA cells; mean MFI normalized to chAQC2 blocked; average of two transfections
[7] = biological target: T2, human α1-I domain-GST fusion protein; test: ELISA on immobilized α1 I domain-GST (±0.015 in r12)
[8] = biological target: T2, human α1-I domain-GST fusion protein; test: electrochemiluminescence; inhibition of α1 I domain-GST binding to type IV collagen beads (±0.011 in r12)
[9] = biological target: T3, α1β1 integrin (VLA-1) in lysate of …; test: electrochemiluminescence; inhibition of α1β1 (K562-α1 lysate) binding to type IV collagen beads (±0.014 in r12)

Row | Binder | EC50 [1] [nM] | EC50 [2] [nM] | IC50 [3] [nM] | IC50 [4] [nM] | IC50 [5] [nM] | Relative MFI [6] | EC50 [7] [nM] | IC50 [8] [nM] | IC50 [9] [nM]
1 | B1 | 0.25 | 0.176 | 30 | 0.027 | 0.071 | 1 relative to chAQC2 blocked | – | – | –
2 | B2 | – | – | 38 | – | – | – | 0.061 | 0.029 | 0.0726
